According to PMC9340783:

Experiments:
[1] = target: human GITR on 293F‐hGITR cells (human) (UniProt Q9Y5U5)
[2] = target: cynoGITR ECD hFc (cynomolgus); experiment: ELISA; indirect ELISA; antigen hFc fusion protein coated on 96-well plates (1 μg·mL^−1 overnight at 4 °C in Fig. 3B), antibody added, detected with anti-rat IgG/hIgG-peroxidase antibody
[3] = target: hGITR ECD hFc (human) (UniProt Q9Y5U5); experiment: as above
[4] = target: cynoGITR on 293F‐cynoGITR cells (cynomolgus); experiment: flow cytometry on cells; 293F‐hGITR or 293F‐cynoGITR cells incubated with antibodies at 4 °C for 1 h, fluorescent anti-rat/human secondary antibody; EC50 of MFI curve
[5] = target: human GITR on 293F‐hGITR cells (human) (UniProt Q9Y5U5); experiment: as above
[6] = target: hGITR ECD hFc (human) (UniProt Q9Y5U5); experiment: SPR; Biacore T200; hGITR ECD hFc immobilised on a Series S CM5 chip; antibody 0, 3.125, 6.25, 12.5, 25 and 50 nM; association 180 s, dissociation 600 s
[7] = target: hGITR ECD hFc (human) (UniProt Q9Y5U5); experiment: SPR

Chain of hGITR ECD hFc (human) (Q9Y5U5 other isoform, or with tags, fused parts or gaps): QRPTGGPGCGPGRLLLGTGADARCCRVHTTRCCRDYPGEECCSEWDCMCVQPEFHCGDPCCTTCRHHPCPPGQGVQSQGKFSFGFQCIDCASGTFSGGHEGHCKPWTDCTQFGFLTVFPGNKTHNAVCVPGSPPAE
Chain of human GITR on 293F‐hGITR cells (human) (Q9Y5U5 26-241): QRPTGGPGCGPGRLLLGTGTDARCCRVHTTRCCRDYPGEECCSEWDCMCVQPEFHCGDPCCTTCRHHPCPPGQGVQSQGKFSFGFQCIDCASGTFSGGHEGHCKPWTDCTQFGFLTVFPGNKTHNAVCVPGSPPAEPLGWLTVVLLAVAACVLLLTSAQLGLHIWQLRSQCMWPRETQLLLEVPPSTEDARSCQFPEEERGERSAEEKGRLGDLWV

Row | NF‐ĸB luciferase reporter assay, Crosslinking, EC50 [1] [nM] | NF‐ĸB luciferase reporter assay, Crosslinking, Top ratio [1] [fold] | NF‐ĸB luciferase reporter assay, No crosslinking, EC50 [1] [nM] | NF‐ĸB luciferase reporter assay, No crosslinking, Top ratio [1] [fold] | T‐cell activation (IFN‐γ secretion), Donor#1, EC50 [1] [nM] | T‐cell activation (IFN‐γ secretion), Donor#2, EC50 [1] [nM] | T‐cell activation (IFN‐γ secretion), Donor#3, EC50 [1] [nM] | EC50 [2] [nM] | EC50 [3] [nM] | EC50 [4] [nM] | EC50 [5] [nM] | Kd [6] [nM] | koff [7] [s⁻¹] | Substance
1 | 0.336 | 32 | 0.829 | 14 | 0.0106 | 0.00559 | 0.00681 | 1.12 | 0.954 | 0.007 | 0.027 | 3.82 | – | Tab6C8 (antibody)
2 | – | – | – | – | – | – | – | – | – | – | – | – | 0.0044 | Tab6C8
